Earlier results, collected in publication PMC3642679.

Target: sliding clamp beta (Escherichia coli) (UniProt P0A988)
Chain of UniProt P0A988 (P0A988 whole entry): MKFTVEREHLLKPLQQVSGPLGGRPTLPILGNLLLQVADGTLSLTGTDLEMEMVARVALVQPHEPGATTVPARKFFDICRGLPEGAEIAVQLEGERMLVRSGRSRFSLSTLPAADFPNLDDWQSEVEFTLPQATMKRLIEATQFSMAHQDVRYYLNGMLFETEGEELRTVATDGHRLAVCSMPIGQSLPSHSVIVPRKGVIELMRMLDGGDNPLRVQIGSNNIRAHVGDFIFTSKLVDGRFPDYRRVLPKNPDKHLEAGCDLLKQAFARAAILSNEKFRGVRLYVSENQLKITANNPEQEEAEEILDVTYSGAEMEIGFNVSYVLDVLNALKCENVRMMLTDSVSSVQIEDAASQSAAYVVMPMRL

Pol III alpha (from UniProt P10443)
Kd: 1000 nM
